One molecule from patent EP4814010A1 (Shanghai Huaota Biopharmaceutical Co., Ltd., dated 2026) can be followed below.

The target in assay [1] is T1, Trypsin inhibitor type 1-S from Glycine max (Glycine max, UniProt P01070 25-205).
T1 sequence (looked up): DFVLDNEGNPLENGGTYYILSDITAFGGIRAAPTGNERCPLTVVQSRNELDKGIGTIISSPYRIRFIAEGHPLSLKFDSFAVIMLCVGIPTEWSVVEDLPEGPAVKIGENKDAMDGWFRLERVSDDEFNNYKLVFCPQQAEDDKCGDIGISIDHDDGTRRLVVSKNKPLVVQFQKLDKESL
Kind of assay: SPR (Biacore 8K), trypsin inhibitor amine-coupled on CM5, antibody as analyte. On the technique in general: Surface plasmon resonance follows binding to a sensor surface in real time, without labels.

Assay [2] addresses T2, Human IL-11, No Tag (Sino Biological, 12225-HNCE) (human, UniProt P20809 22-199).
T2 construct: Bought protein; also called IL-11 Protein, Human, Recombinant
T2 sequence (looked up): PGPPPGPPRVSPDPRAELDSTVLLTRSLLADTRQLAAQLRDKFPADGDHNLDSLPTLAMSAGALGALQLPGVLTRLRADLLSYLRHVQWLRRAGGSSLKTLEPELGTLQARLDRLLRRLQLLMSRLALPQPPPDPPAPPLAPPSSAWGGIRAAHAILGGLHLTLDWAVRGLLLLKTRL
The assay can be described thus: SPR (Biacore T200), antibody captured on Protein A chip, IL-11 as analyte, 1:1 model.

The target of assay [3] is T3, Mouse IL-11, No Tag (Sino Biological, 50117-MNCE) (mouse, UniProt P47873 22-199).
T3 construct: Bought protein
T3 sequence (looked up): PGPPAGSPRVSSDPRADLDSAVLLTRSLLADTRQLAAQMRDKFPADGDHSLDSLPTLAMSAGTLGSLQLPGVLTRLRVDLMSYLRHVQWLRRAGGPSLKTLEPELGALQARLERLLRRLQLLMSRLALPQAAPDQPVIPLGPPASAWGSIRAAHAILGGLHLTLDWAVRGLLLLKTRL
The description is as above.

For assay [4], the target named is T4, Recombinant Rat Interleukin-11(IL-11), hFc Tag (CusaBio, CSB-MP859561RAd9) (rat, UniProt Q99MF5 22-199).
T4 construct: Bought fusion protein; also called Rat IL-11; not shown: hFc tag
T4 sequence (looked up): T3 sequence (looked up) with S50N, L84F, G94A, V137A, I138V
The assay can be described thus: BLI (Octet RH96), biotinylated sample on SA sensor, rat IL-11 as analyte, 1:1 global fit.

The target in assay [5] is T5, Cynomolgus IL-11, No Tag (Sino Biological Inc., 90925-CNCE) (cynomolgus, UniProt P20808 22-199).
T5 construct: Bought protein; also called monkey IL-11
T5 sequence (looked up): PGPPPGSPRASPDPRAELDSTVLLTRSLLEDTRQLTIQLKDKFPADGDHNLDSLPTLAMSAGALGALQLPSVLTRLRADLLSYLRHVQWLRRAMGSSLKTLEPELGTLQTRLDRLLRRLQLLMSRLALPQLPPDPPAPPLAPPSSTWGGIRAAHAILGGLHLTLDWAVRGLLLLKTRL
Kind of assay: SPR (Biacore 8K), cynomolgus IL-11 amine-coupled on CM5, single-cycle kinetics, 1:1 model.

Positions count from the first letter of the chain named.

B1: anti-IL-11 monoclonal heavy chain antibody 700068 (antibody, V domains shown)
VH: QVQLVESGGGLVQPGGSLRLSCAASGSIASIYTMAWYRQAPGKQRELVALSTNRGATDYADFVKGRFTISRDNAENTMYLQMNSLKPEDTAVYYCNGVASSWSTGFVASWGQGTQVTVSS
notes: also called 700068 heavy chain antibody
As a reminder, the Kd is the constant that tells how readily two partners part at equilibrium. For orientation: koff means the rate constant with which the complex falls apart. Broadly, the kon is the second-order rate constant of association. On to B1, for which, in assay [1], the binding result is recorded as “no binding”. Further, the equilibrium dissociation constant (Kd) in assay [2] was determined as 1.93 nM; in assay [3], 2.2 nM; in assay [4], 1.17 nM; in assay [5] it was 4.56 nM. Moreover, the dissociation rate constant (koff) was 0.00133 s⁻¹ in assay [2], 0.00107 s⁻¹ in assay [3], 5.57e-05 s⁻¹ in assay [4] and 0.00221 s⁻¹ in assay [5]. Also, the kon in assay [2] was found to be 689000 M⁻¹ s⁻¹; in assay [3], 487000 M⁻¹ s⁻¹; in assay [4] it was 47500 M⁻¹ s⁻¹; in assay [5], 485000 M⁻¹ s⁻¹.
